According to paper PMC10021052, “Novel multivalent S100A8 inhibitory peptides attenuate tumor progression and metastasis by inhibiting the TLR4-dependent pathway” (Cancer Gene Therapy, 2023):
Entries after “also recorded” stand apart in the source; their conditions may differ.

Experiments:
[1] = system: p38 and p65 (NF-κB) in SW480 cells; details: ref [8]; cited from earlier work
Description: TLR4/MD-2 dimerizes upon ligand binding. To attempt the inhibitory peptide fitted into dimerized forms, we generated a divalent peptide of peptide3A5 using Fmoc-Lys (Fmoc)-OH to form two branches in the peptide chain. […] We then examined the effect of divalent peptide3A5 on TLR4/MD-2 downstream signaling. […] Pretr ...

[2] = system: MDSCs; assay: In vivo S100A8 stimulation, MDSC recruitment to lungs; set-up: species or system C57BL/6J mice; details: recombinant S100A8 i.v., 4 h; *P < 0.05 vs control
Method: Balb nu/nu or C57BL/6J mice were purchased from Clea Japan Inc. (Tokyo, Japan). Mice were used for experiments at 2–3 months of age. […] For in vivo S100A8 stimulation, C57BL/6J mice were intravenously injected with mammalian-derived S100A8. Four hours after the i.v. injection, mice were sacrificed, and minced mouse lungs were digested with collagenase/dispase/DNase solution. Collected cells were incubated with anti-CD11b-PE (BD Bioscience), anti-Ly6G-FITC (BD Bioscience), and anti-Ly6C-APC (BD Bioscience) antibodies, and analyzed by a flow cytometry (Cytomics FC500; Beckman Coulter, Brea, CA, USA). […] The mice were sacrificed after 16 h, and minced mouse lungs were digested with collagenase/dispase/DNase solution. The recruitment of MDSCs or PKH-26 labeled tumor cells in the lungs was determined by flow cytometry (CytoFlex; Beckman Coulter).

[3] = system: PD-L1 in macrophages; set-up: method as in PMID 32198140; details: ref [29]; cited from earlier work
[4] = biological target: human TLR4/MD-2 complex (human) (UniProt O00206)
Chain of human TLR4/MD-2 complex (human) (O00206 24-839, chain 1 of 2): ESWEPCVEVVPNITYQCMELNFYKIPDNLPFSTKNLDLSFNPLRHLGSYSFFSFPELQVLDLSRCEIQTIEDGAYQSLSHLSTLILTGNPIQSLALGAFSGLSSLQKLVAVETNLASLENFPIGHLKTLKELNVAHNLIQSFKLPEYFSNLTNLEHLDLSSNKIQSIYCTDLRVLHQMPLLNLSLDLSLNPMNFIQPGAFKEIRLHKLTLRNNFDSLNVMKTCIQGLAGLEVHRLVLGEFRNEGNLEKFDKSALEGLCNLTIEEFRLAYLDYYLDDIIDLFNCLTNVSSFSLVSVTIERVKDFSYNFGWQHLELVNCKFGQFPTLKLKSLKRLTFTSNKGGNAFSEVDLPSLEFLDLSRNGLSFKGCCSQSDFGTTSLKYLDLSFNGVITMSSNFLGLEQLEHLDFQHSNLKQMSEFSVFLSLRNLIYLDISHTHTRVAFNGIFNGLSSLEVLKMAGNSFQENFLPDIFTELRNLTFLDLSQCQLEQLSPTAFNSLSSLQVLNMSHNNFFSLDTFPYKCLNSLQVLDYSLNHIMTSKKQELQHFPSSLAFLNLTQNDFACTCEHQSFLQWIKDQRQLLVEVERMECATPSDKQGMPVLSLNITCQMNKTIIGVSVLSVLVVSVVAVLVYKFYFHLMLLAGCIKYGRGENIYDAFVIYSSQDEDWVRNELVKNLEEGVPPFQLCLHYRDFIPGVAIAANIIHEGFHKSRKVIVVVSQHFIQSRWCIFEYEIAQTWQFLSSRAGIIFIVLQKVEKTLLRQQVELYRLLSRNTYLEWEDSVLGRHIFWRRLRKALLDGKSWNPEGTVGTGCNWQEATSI
Chain of human TLR4/MD-2 complex (human) (Q9Y6Y9 19-160, chain 2 of 2, further chain): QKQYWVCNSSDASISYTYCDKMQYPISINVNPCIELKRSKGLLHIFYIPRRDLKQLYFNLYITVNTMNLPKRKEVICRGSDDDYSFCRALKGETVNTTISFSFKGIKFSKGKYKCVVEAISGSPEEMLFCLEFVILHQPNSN

[5] = system: SW480 cells; assay: qPCR, S100A8-mediated IL-8 and VEGF mRNA induction in SW480 cells; format: cell-based, human; details: Fig. 2E
Method: SW480 cells were treated with S100A8 in Dulbecco’s Modified Eagle Medium/HamF12 supplemented with 0.1% bovine serum albumin for cytokine induction. Total RNA was extracted using the RNeasy Mini Plus (Qiagen, Hilden, Germany). Complementary DNA was synthesized using the PrimeScript 1st Strand Synthesis kit (Takara Bio, Japan). Quantitative PCR (qPCR) analysis was performed using the PowerUp^TM SYBR^TM Green mixture (Thermo Fisher Scientific) and the StepOnePlus Real Time PCR System (Thermo Fisher Scientific). Gene expression levels were calculated from Ct values, and the relationship between the Ct value and the logarithm of the copy number of a target gene was confirmed to be on a linear line using the corresponding isolated DNA and its serial dilutions as a standard. Thus, the gene expression levels of IL-8 and VEGF were normalized against that of β-actin in each sample. The following primers were used; β-actin, 5′-[…]-3′ and 5′-[…]-3′; IL-8, 5′-[…]-3′ and 5′-[…]-3′; VEGF, 5′-[…]-3′ and 5′-[…]-3′.
Fig. 2 Identification of S100A8 binding sites to human TLR4/MD-2. […] TLR4/MD-2 recombinant proteins were immobilized to the ELISA plate. After blocking, a full length or deletion mutant of S100A8 was added to the plate. The more detailed methods are described in Materials and Methods. […] B A series of overlapping S100A8 synthetic peptides. The TLR4/MD-2 recombinant proteins were added to each well of peptide immobilized plates. The affinity to TLR4/MD-2 was determined. Data are shown as mean ± SD. C The competitive activity was determined using ELISA. Data are shown as mean ± SD. D The TLR4/MD-2 was mixed with S100A8 with/without the indicated peptides, and immunoprecipitated using an anti-TLR4 antibody. TLR4 or S100A8 was visualized. Similar results were obtained in three independent experiments. […] Total RNAs from SW480 cells with/without treatment of the peptide candidates were extracted and qPCR analysis was performed using relevant primer sets and SYBR green. Relative expression levels were compared. […] TEXT PRINTED IN THE PICTURE: (A) Full length: TLR4/MD-2 binding: + | (A) S100A8-ΔC: TLR4/MD-2 binding: − | (A) S100A8-N: TLR4/MD-2 binding: −
Fig. 4 Improvement of competitive inhibition activity by divalent peptide3A5. A The binding capacity was measured at the indicated concentration using an ELISA-based assay. Similar results were obtained in three independent experiments. B SW480 cells were pretreated with 2.5 µM of divalent peptide3A5, and then stimulated with human S100A8 recombinant protein. After 30 min, cell lysates were subjected to western blotting using the indicated antibody. The divalent peptide#3 or peptide3A5 reduced the expression of S100A8-mediated IL-8 (C) and VEGF (D) induction. Total RNAs from SW480 cells with/without treatment of the peptide candidates were extracted and qPCR analysis was performed using relevant primer sets and SYBR green. Relative expression levels were compared. Peptide #3 suppresses S100A8-mediated IL-8(E) and VEGF (F) secretion in SW480 cells.

[6] = system: S100A8-mediated cell migration; details: ref [8]; cited from earlier work
Description: VEGF is another NFκB-mediated re ...

[7] = system: tumor cells and macrophages; details: ref [8]; cited from earlier work
Description: S100A8 belongs to the S100s family and is characterized by two calcium-binding EF-hand motifs: a carboxyl-terminal EF-hand (high affinity to calcium), and an N-terminal EF-hand (low affinity to calcium) that are connected by a central hinge. Like most S100 proteins, S100A8 can form a heterodimer with S100A9 or can exist as a homodimer or monomer. Vogl et al. originally reported that S100A8-mediated cytokine induction was mediated via TLR4 [5].

- S100A8-induced phosphorylation of p38 in SW480 cells pretreated with 2.5 µM divalent peptide3A5: fold inhibition [4]: 1.3 fold
- S100A8-induced phosphorylation of p65 (NF-κB) in SW480 cells pretreated with 2.5 µM divalent peptide3A5: fold inhibition [4]: 1.7 fold
B1: human S100A8 recombinant protein, full length (natural protein)
chain: MLTELEKALNSIIDVYHKYSLIKGNFHAVYRDDLKKLLETECPQYIRKKGADVWFKELDINTDGAVNFQEFLILVIKMGVAAHKKSHEESHKE
- phosphorylation of p38 MAP kinase / NF-κB activation by S100A8 [1]: induced phosphorylation of p38 MAP kinase, followed by activation of NF-κB signaling
- recruitment of MDSCs from bone marrow to lungs [2]: increased the recruitment of MDSCs from the bone marrow to the lungs; also recorded: induces pulmonary recruitment of MDSCs from bone marrow
- PD-L1 expression in macrophages [3]: upregulated PD-L1 in macrophages via a TLR4-dependent pathway
- IL-8 production induced by S100A8 [5]: induced IL-8 production
- cell migration induced by S100A8 [6]: induces cell migration in a TLR4-dependent manner
- induction of inflammatory cytokines/chemokines by S100A8 [7]: induced inflammatory cytokines/chemokines in a TLR4-dependent manner
